Measurements from patent US20240368233A1 (University of Washington, published 2024).

What was measured:
[1] = molecular target: T1, 289B; assay: BLI, steady state fit
T1 construct: also called LHD289 B; LHD289 chainB
T1 chain: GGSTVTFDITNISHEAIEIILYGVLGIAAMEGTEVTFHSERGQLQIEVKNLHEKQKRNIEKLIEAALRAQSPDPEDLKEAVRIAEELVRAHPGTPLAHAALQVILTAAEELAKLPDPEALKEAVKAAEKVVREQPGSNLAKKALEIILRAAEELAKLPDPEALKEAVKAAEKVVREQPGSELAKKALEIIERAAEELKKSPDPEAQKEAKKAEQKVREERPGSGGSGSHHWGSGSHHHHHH
Description: (§1) Biolayer interferometry experiments were performed on an OctetRED96 BLI system (ForteBio, Menlo Park, CA). Streptavidin coated biosensors were first equilibrated for at least 10 minutes in Octet buffer (10 mM HEPES pH 7.4, 150 mM NaCl, 3 mM EDTA, 0.05% Surfactant P20) supplemented with 1 mg/ml Bovine Serum Albumin (SigmaAldrich). Enzymatically biotinylated designs were immobilized onto the biosensors by dipping the biosensors into a solution with 10-50 nM protein for 30-120 s. This was followed by dipping in fresh octet buffer to establish a baseline for 120 s. Titration experiments were performed at 25° C. while rotating at 1,000 r.p.m. Association of designs was allowed by dipping biosensors in solutions containing designed protein diluted in octet buffer until equilibrium was approached followed by dissociation by dipping the biosensors into fresh buffer solution in order to monitor the dissociation kinetics. Steady-state and global kinetic fits were performed using the manufacturer's software (Data Analysis 9.1) assuming a 1:1 binding model.

[2] = molecular target: T1, 289B; assay: BLI, global kinetic fit, 1:1 model
Description: as §1

[3] = molecular target: T2, 275B; assay: SEC of mixed components; tetramer (control pentamer) listed in Table 6, neighbours in the chain
T2 construct: also called LHD275 B; LHD275B
T2 chain: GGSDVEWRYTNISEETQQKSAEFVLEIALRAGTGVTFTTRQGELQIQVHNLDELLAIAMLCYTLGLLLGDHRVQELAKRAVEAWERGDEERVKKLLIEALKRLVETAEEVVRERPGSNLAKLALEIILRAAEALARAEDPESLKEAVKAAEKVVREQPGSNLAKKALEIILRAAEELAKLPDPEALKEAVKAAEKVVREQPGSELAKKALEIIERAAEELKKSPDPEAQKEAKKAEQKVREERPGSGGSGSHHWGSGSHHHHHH
Description: Complexes and individual components were diluted in 20 mM Tris pH 8.0, 100 mM NaCl. After o/n equilibration of the mixtures at room temperature or 4 degrees C., 500 ul of sample was injected onto a Superdex™ 200 10/300 increase GL (dimers, linear assemblies) or Superose™ 6 increase 10/300 GL (symmetric assemblies) (all columns from GE healthcare) using the absorbance at 230 nm or 473 nm (for GFP tagged components) as read-out. Dimers were mixed at monomer concentrations of 5 μM or higher. Trimer and ABCD tetramer mixtures contained 5 μM of the bivalent connector, and 7.5 μM of each terminal cap (lower absolute concentrations with the same ratios were used for some trimers). ABCA tetramer mixtures contained 5 μM per bivalent connector and 15 μM terminal cap. The hexamer mixture contained 3 μM of components C and D, 3.6 μM of B and E, and 4.4 μM of A and F. The branched assembly shown in FIG. 4A contained 2.8 μM of the trivalent connector and 4 μM of each cap. For the exchange experiment shown in FIG. 5A, the ABC trimer was preincubated at concentrations of 6 μM B and 9 μM each of A and C. C′ was then added to reach a final concentration of 2 μM B, 3 μM each of A and C, and 6 μM C′.

[4] = molecular target: T3, 278B; assay: BLI, steady state fit
T3 construct: also called LHD278 B; LHD278 chainB
T3 chain: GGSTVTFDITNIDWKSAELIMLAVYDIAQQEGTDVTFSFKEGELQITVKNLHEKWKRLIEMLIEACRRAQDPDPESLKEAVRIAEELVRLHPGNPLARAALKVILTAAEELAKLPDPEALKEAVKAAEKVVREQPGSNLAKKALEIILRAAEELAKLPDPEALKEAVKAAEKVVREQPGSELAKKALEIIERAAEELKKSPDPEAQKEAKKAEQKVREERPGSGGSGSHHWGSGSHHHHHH
Description: as §1

[5] = molecular target: T3, 278B; assay: BLI, global kinetic fit, 1:1 model
Description: as §1

[6] = molecular target: the molecule itself; assay: SEC titration of the protomer alone at several injection concentrations (Superdex 75, normalised A230); self-association
[7] = molecular target: T4, LHD101 chainB; assay: BLI
T4 construct: also called LHD101B
T4 chain: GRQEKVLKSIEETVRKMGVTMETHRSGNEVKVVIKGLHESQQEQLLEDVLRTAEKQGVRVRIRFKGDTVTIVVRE
Source text: FIG. 8A-E. Characterization LHD binding in vitro. A: Designed models heterodimers (top row). Middle row, SEC binding experiments performed on a Superdex™ 75 column. Bottom row, biolayer interferometry kinetic binding traces. […] C: Kinetic binding traces from BLI. Equilibrium responses were used to fit equilibrium binding curves D: Equilibrium binding curves of LHDs from biolayer interferometry binding assays with data from C. […] Biotinylated unfused protomers were immobilized on streptavidin coated biosensors.
Biolayer interferometry experiments were performed on an OctetRED96 BLI system (ForteBio, Menlo Park, CA). Streptavidin coated biosensors were first equilibrated for at least 10 minutes in Octet buffer (10 mM HEPES pH 7.4, 150 mM NaCl, 3 mM EDTA, 0.05% Surfactant P20) supplemented with 1 mg/ml Bovine Serum Albumin (SigmaAldrich). Enzymatically biotinylated designs were immobilized onto the biosensors by dipping the biosensors into a solution with 10-50 nM protein for 30-120 s. This was followed by dipping in fresh octet buffer to establish a baseline for 120 s. Titration experiments were performed at 25° C. while rotating at 1,000 r.p.m. […]

[8] = molecular target: T4, LHD101 chainB; assay: BLI, steady state fit
Description: as §1

[9] = molecular target: the molecule itself; assay: SEC titration (self-association)
[10] = molecular target: T4, LHD101 chainB; assay: BLI, global kinetic fit, 1:1 model
Description: as §1

[11] = molecular target: T4, LHD101 chainB; assay: BLI, dissociation rate constant (kdis)
Description: as §1

[12] = molecular target: T5, LHD202 chainB, split luciferase reporter construct; assay: split luciferase association kinetics, 1 nM vs. 10 nM, in lysate
T5 construct: not shown: N-terminal Strep-tag and sfGFP; GS-linker and smBiT or lgBiT
T5 chain: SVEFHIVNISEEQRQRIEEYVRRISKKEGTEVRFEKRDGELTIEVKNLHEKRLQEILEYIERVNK
Description: Assays were performed in 20 mM sodium phosphate, 100 mM NaCl, pH 7.4, 0.05% v/v Tween 20. Reactions were assembled in 96 well plates (Corning, cat #3686) in the presence of Nano-Glo™ substrate (Promega, cat. #N1130) diluted 100× or 500× for kinetics and endpoint measurements respectively (see supplement for detailed information). Luminescence was recorded on a Synergy Neo2 plate reader (BioTek). Kinetic assays were performed under pseudo first-order conditions, with the final concentration of one protein at 1 nM and the other at 10 nM. Dead times between substrate addition and data acquisition were typically 15-30 s. For long kinetic measurements (FIG. 11A), mastermixes of the protein complexes were made and aliquots were sampled at regular intervals. Data were fitted to a single exponential decay function: […]

B1: LHD289 chainA (designed binder)
chain: GRQEKVLKSIEETVRKMGVTMLTHRHGNVVFVVILGLHKQQALQLLRDVHRTAHKQGVTLSITFSGDIVVIAVTVGASEEEKKEVRKIVKEIAKQLRHAETEEEAKEIVQRVIEEWQEEG
notes: also called LHD289A
Q: With B1 as the binder, how does the Kd [1] read?
A: 610 nM

Q: What about the Kd [2] of the same binder?
A: 1080 nM

Q: And the koff [2]?
A: 0.057 s⁻¹

Q: And the kon [2]?
A: 53000 M⁻¹ s⁻¹

B2: DF275A-1 (designed binder)
chain: HHHHHHGSGSGRQEKVLKSIEETVRKMGVEMLTFRAGKAVIVVIRGLHPEQAKQLLRDVSQTAHKQGVTVTLTFHGDVVFILVLVGASEEQQRAMQLLIQALARIIHEAKRRGVSEEQLKRMIEAAARLIEVLLKALEAAREGNTDEVREQLQRALEIVREIGLTAAVRLALLVVEAVATLAAKRGNTDAVREALEVALEIARESGTTEAVKLALEVVARVAIEAARRGNTDAVREALEVALEIARESGTTEAVKLALEVVARVAIEAARRGNTDAVREALAVAVKIALKSGTEEAFRLAKEVIKRVSDEAKKQGNEDAVKEAESFDAAAELILSLLKLFRELHERGTEIVVEVHINGRKTEIEVQGIDKRLLQIILEVIIEEIAREGPDKVEVNVHSGGQTWTFRYGGS
notes: Bivalent connector
Q: Does B2 bind [3]?
A: binds

B3: LHD278 chainA (designed binder)
chain: GRQEKVLKSIEETVRKMGVRMLTHRGGNAVIVVIEGLHPSQIKQLMQDVIKTAKKQGVTVTITVSGDIVVIMVVVGASDEEQEEARRLVQEIARALQEAKRKGANEEQLEQLLRELLERAEREG
notes: also called LHD278A
Q: With B3 as the binder, how does the Kd [4] read?
A: 3.4 nM

Q: What about the Kd [5] of the same binder?
A: 0.8 nM

Q: And the koff [5]?
A: 0.00022 s⁻¹

Q: And the kon [5]?
A: 290000 M⁻¹ s⁻¹

Q: Does B3 bind [6]?
A: no binding (tested: 52.4 uM)

B4: LHD101 chainA (designed binder)
chain: GRQEKVLKSIEETVRKMGVTMETHRSGNEVKVVIKGLHIKQQRQLYRDVRETSKKQGVETEIEVEGDTVTIVVRE
notes: also called LHD101A
Q: Which kon [7] does the source give for B4 here?
A: 1e+06 M⁻¹ s⁻¹

Q: And the Kd [8]?
A: 9.5 nM

Q: Does B4 bind [9]?
A: no binding (tested: above 100 µM)

Q: What about the Kd [10] of the same binder?
A: 1.9 nM

Q: And the koff [10]?
A: 0.0043 s⁻¹

Q: And the kon [10]?
A: 2.2e+06 M⁻¹ s⁻¹

Q: And the koff [11]?
A: 0.0214 s⁻¹

B5: LHD202 chainA, split luciferase reporter construct (designed binder)
chain: GRQEKVLKSIEETVRKMGVTMETHRSGNKVKVVIKGLHESQQEQLRKDVHETLRKQGVVAVTQKHGDTVTIYVTE
notes: not shown: N-terminal Strep-tag and sfGFP; GS-linker and smBiT or lgBiT
Q: B5 was tested. Which kobs [12] did it give?
A: 0.018 s⁻¹
